The labels stand for the following.
B1: CPEB3 Ribozyme (parent)
chain: GGGGGCCACAGCAGAAGCGUUCACGUCGCGGCCCCUGUCAGAUUCUGGUGAAUCUGCGAAUUCUGCUGU

This data set covers variants of B1. The data set can be described thus: self-cleavage, relative activity (ratio to wild type); higher = more cleavage; co-transcriptional.
GGGGGCCACAUCAGAAGCGUUCACGCCGCGGCCCCUGUCAGAUUCUGGUGAAUCUGCGAAUUCUGCUGU [G11U U26C]: the self-cleavage worked out at 0.712.

For the variant GGGGGCCACAUCAGAAGCGUUCACGACGCGGCCCCUGUCAGAUUCUGGUGAAUCUGCGAAUUCUGCUGU [G11U U26A], the self-cleavage was 0.552.

On to GGGGGCCACAUCAGAAGCGUUCACGUCGCGGCCCCUGUCAGAUUCUGGUGAAUCUGCCAAUUCUGCUGU [G11U G58C], for which the self-cleavage stood at 0.857.

Take GGGGGCCACAUCAGAAGCGUUCACGUCGCGGCCCCUGUCAGAUUCUGGUGAAUCUGCUAAUUCUGCUGU [G11U G58U]: the self-cleavage came out at 0.891.

For GGGGGCCACAUCAGAAGCGUUCACGUCGCGGCCCCUGUCAGAUUCUGGUGAAUCUGCAAAUUCUGCUGU [G11U G58A], the self-cleavage was 0.846.

Consider GGGGGCCACAUCAGAAGCGGUCACGUCGCGGCCCCUGUCAGAUUCUGGUGAAUCUGCGAAUUCUGCUGU [G11U U20G], for which the self-cleavage came to 0.121.

On to GGGGGCCACAUCAGAAGCGAUCACGUCGCGGCCCCUGUCAGAUUCUGGUGAAUCUGCGAAUUCUGCUGU [G11U U20A], for which the self-cleavage amounted to 0.119.

On to GGGGGCCACAUCAGAAGCGCUCACGUCGCGGCCCCUGUCAGAUUCUGGUGAAUCUGCGAAUUCUGCUGU [G11U U20C], for which the self-cleavage was 0.131.

Turning to GGGGGCCACAUCAGAAGCGUUCACGUCGCGGCCCCUGUCAGAUUCUGGUGAAUCUGCGAAUUCAGCUGU [G11U U64A], the self-cleavage is 0.467.

As for GGGGGCCACAUCAGAACCGUUCACGUCGCGGCCCCUGUCAGAUUCUGGUGAAUCUGCGAAUUCUGCUGU [G11U G17C], the self-cleavage came out at 0.129.

Take GGGGGCCACAUCAGAAUCGUUCACGUCGCGGCCCCUGUCAGAUUCUGGUGAAUCUGCGAAUUCUGCUGU [G11U G17U]: the self-cleavage is 0.148.

As for GGGGGCCACAUCAGAAACGUUCACGUCGCGGCCCCUGUCAGAUUCUGGUGAAUCUGCGAAUUCUGCUGU [G11U G17A], the self-cleavage came to 0.141.

Consider GGGGGCCACAUCAGAAGCGUUCACGUCGCGGCCCCUGUCAGAUUCAGGUGAAUCUGCGAAUUCUGCUGU [G11U U46A], for which the self-cleavage was 0.864.

As for GGGGGCCACAUCAGAAGCGUUCACGUCGCGGCCCCUGUCAGAUUCGGGUGAAUCUGCGAAUUCUGCUGU [G11U U46G], the self-cleavage amounted to 0.901.

As to GGGGGCCACAUCAGAAGCGUUCACGUCGCGGCCCCUGUCAGAUUCCGGUGAAUCUGCGAAUUCUGCUGU [G11U U46C], the self-cleavage worked out at 0.79.

With GGGGGCCACAUCAGAAGCGUUCACGUCGCGGCCCCUGUCAGAUUCUGGUGAACCUGCGAAUUCUGCUGU [G11U U53C], the self-cleavage was 0.329.

As to GGGGGCCACAUCAGAAGCGUUCACGUCGCGGCCCCUGUCAGAUUCUGGUGAAGCUGCGAAUUCUGCUGU [G11U U53G], the self-cleavage was 0.487.

Consider GGGGGCCACAUCAGAAGCGUUCACGUCGCCGCCCCUGUCAGAUUCUGGUGAAUCUGCGAAUUCUGCUGU [G11U G30C], for which the self-cleavage is 0.455.

Regarding GGGGGCCACAUCAGAAGCGUUCACGUCGCAGCCCCUGUCAGAUUCUGGUGAAUCUGCGAAUUCUGCUGU [G11U G30A], the self-cleavage was 0.589.

Turning to GGGGGCCACAUCAGAAGCGUUCACGUCGCGGCCCCCGUCAGAUUCUGGUGAAUCUGCGAAUUCUGCUGU [G11U U36C], the self-cleavage was determined as 0.59.

With GGGGGCCACAUCAGAAGCGUUCACGUCGCGGCCCCGGUCAGAUUCUGGUGAAUCUGCGAAUUCUGCUGU [G11U U36G], the self-cleavage turned out to be 0.167.

GGGGGCCACAUCAGAAGCGUUCACGUCGCGGCCCCUCUCAGAUUCUGGUGAAUCUGCGAAUUCUGCUGU [G11U G37C]: the self-cleavage came to 0.213.

GGGGGCCACAUCAGAAGCGUUCACGUCGCGGCCCCUUUCAGAUUCUGGUGAAUCUGCGAAUUCUGCUGU [G11U G37U]: the self-cleavage turned out to be 0.165.

With GGGGGCCACAUCAGAAGCGUUCACGUCGCGGCCCCUAUCAGAUUCUGGUGAAUCUGCGAAUUCUGCUGU [G11U G37A], the self-cleavage came out at 0.145.

For the variant GGGGGCCACAUCAGAAGCGUUCACGUCGCGGCCCCUGUCAGAUUCUGCUGAAUCUGCGAAUUCUGCUGU [G11U G48C], the self-cleavage stood at 0.878.

Turning to GGGGGCCACAUCAGAAGCUUUCACGUCGCGGCCCCUGUCAGAUUCUGGUGAAUCUGCGAAUUCUGCUGU [G11U G19U], the self-cleavage was determined as 0.118.

Turning to GGGGGCCACAUCAGAAGCCUUCACGUCGCGGCCCCUGUCAGAUUCUGGUGAAUCUGCGAAUUCUGCUGU [G11U G19C], the self-cleavage worked out at 0.135.

GGGGGCCACAUCAGAAGCAUUCACGUCGCGGCCCCUGUCAGAUUCUGGUGAAUCUGCGAAUUCUGCUGU [G11U G19A]: the self-cleavage is 0.115.

Regarding GGGGGCCACAUCAGAAGCGUUCACGUCGCGGCCCCUGUCAGAUUCUGGAGAAUCUGCGAAUUCUGCUGU [G11U U49A], the self-cleavage is 0.941.

In the case of GGGGGCCACAUCAGAAGCGUUCACGUCGCGGCCCCUGUCAGAUUCUGGCGAAUCUGCGAAUUCUGCUGU [G11U U49C], the self-cleavage was determined as 0.847.

As for GGGGGCCACAUCAGAAGCGUUCACGUCGCGGCCCCUGUCAGAUUCUGGGGAAUCUGCGAAUUCUGCUGU [G11U U49G], the self-cleavage stood at 0.98.

As for GGGGGCCACAUCAGAAGCGUUCACGUCGCGGCCCCUGCCAGAUUCUGGUGAAUCUGCGAAUUCUGCUGU [G11U U38C], the self-cleavage is 0.756.

For the variant GGGGGCCACAUCAGAAGCGUUCACGUCGCGCCCCCUGUCAGAUUCUGGUGAAUCUGCGAAUUCUGCUGU [G11U G31C], the self-cleavage worked out at 0.138.

As to GGGGGCCACAUCAGAAGCGUUCACGUCGCGUCCCCUGUCAGAUUCUGGUGAAUCUGCGAAUUCUGCUGU [G11U G31U], the self-cleavage was determined as 0.499.

For GGGGGCCACAGAAGUAGCGUUCACGUCGCGGCCCCUGUCAGAUUCUGGUGAAUCUGCGAAUUCUGCUGU [C12A A15U], the self-cleavage was determined as 0.106.

For GGGGGCCACAGAAGCAGCGUUCACGUCGCGGCCCCUGUCAGAUUCUGGUGAAUCUGCGAAUUCUGCUGU [C12A A15C], the self-cleavage was determined as 0.274.

In the case of GGGGGCCACAGAAGGAGCGUUCACGUCGCGGCCCCUGUCAGAUUCUGGUGAAUCUGCGAAUUCUGCUGU [C12A A15G], the self-cleavage was 0.514.

Turning to GGGGGCCACAGAAGACGCGUUCACGUCGCGGCCCCUGUCAGAUUCUGGUGAAUCUGCGAAUUCUGCUGU [C12A A16C], the self-cleavage is 0.128.

Regarding GGGGGCCACAGAAGAGGCGUUCACGUCGCGGCCCCUGUCAGAUUCUGGUGAAUCUGCGAAUUCUGCUGU [C12A A16G], the self-cleavage came out at 0.385.
